According to patent US20050100989A1 (MERCK SERONO, published 2005):
Where “and” joins values, the source holds several entries; their conditions need not be identical. Equal entries are not always repeated.

T1: human FSH receptor (human, UniProt P23945 18-695)
T1 construct: whole, on cells
T1 sequence (looked up): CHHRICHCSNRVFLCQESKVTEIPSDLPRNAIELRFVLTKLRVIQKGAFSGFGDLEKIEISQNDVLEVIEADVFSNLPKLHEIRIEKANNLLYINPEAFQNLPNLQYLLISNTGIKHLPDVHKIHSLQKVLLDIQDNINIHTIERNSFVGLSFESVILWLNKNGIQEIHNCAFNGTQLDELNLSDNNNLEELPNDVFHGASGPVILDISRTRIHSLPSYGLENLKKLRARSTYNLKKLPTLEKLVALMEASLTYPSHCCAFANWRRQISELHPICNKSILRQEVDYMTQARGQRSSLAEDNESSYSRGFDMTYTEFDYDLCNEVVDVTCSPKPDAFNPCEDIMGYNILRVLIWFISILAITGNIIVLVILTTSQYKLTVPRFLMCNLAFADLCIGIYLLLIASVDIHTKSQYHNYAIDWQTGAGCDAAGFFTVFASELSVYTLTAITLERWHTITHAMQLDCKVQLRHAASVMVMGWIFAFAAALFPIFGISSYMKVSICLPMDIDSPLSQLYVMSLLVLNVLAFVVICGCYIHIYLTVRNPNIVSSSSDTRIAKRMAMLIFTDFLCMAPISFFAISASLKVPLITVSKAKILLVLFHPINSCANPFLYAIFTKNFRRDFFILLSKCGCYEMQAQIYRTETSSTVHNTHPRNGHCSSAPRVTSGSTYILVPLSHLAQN


Assays:
human FSH receptor [1] = molecular target: T1, human FSH receptor; assay: competition with 125I radiolabelled FSH on membrane preparations with human FSH receptor
human FSH receptor [2] = molecular target: T1, human FSH receptor; assay: cell-based or functional assay
human FSH receptor [3] = molecular target: T1, human FSH receptor; assay: competition with 0.4 nM 125I-FSH on CHO membranes bearing human FSHR, filtration, single site model
Description: Large batches of CHO cells line which recombinantly express human FSH receptor or human LH receptor were grown and disrupted by nitrogen cavitation (20 min equilibration to 900 psi, followed by rapid pressure release) in 0.025 M Tris pH 7.4 containing 0.25 M sucrose, 10 mM MgCl₂, 1 mM EDTA and one part per thousand Sigma Protease Inhibitor cocktail (p8350). Following preliminary clarification (10 min×1000×g at 4° C.) the membranes fraction was pelletted (60 min×100,000×g×4° C.) by ultracentrifugation. The membranes fraction was resuspended in binding buffer (0.01 M Tris pH 7.4 containing 5 mM MgCl₂), protein concentration estimated by Bradford (BioRad) protein assay and stored frozen at −80° C. for future use. Typically 15 μg of membrane protein appropriately bearing FSHR or LHR was analyzed, per well, in competition assays.
Radioligand binding was evaluated in 96 well plates, 100 μl/sample well. The assay buffer was 0.01 M Tris pH 7.4 containing 5 mM MgCl₂ and 0.1% BSA and 0.3 nM ¹²⁵I-hCG (for LHR) or 0.4 nM ¹²⁵I-FSH (for FSHR). […] Nonspecific binding was determined in the presence of 500 nM unlabeled hCG or FSH. Binding was allowed to equilibrate for 90 min at 37° C. with shaking. […] Bound radioactivity was measured in an HP Cobra II gamma counter using a pre-programmed detection window specific for ¹²⁵I emission. Data were analyzed using a single site model and Graph Pad Prizm software.

human FSH receptor [4] = molecular target: T1, human FSH receptor; assay: cell-based or functional assay; remark: listed apart in the source

| Binder | Ki (human FSH receptor [1]) [nM] | EC50 (FSHR-coupled cAMP production) (human FSH receptor [2]) [nM] | Ki (human FSH receptor [3]) | FSHR EC50 (cAMP production) (human FSH receptor [4]) |
| --- | --- | --- | --- | --- |
| FSH single β-subunit mutant β E55N/V57T (mutant β-subunit expressed together with the complementary wild type α-subunit) (ligand, N-linked glycosylation; extra consensus site at N55 (hyperglycosylated by shift of apparent molecular weight); N-linked glycosylation (glycoprotein made in CHO cells), also called βE55/V57T) chain 1: not shown chain 2: NSCELTNITIAIEKEECRFCISINTTWCAGYCYTRDLVYKDPARPKIQKTCTFKNLTYETVRVPGCAHHADSLYTYPVATQCHCGKCDSDSTDCTVRGLGPSYCSFGEMKE | 0.86 | 0.039 | – | – |
| GM-1 (FSH double glycosylation mutant: α-subunit H83N and β-subunit E55N/V57T) (ligand, N-linked glycosylation (glycoprotein made in CHO-Dukx cells), Heterodimer; also called GM-1 Lot 1; GM-1 Lot 2) chain 1: not shown chain 2: NSCELTNITIAIEKEECRFCISINTTWCAGYCYTRDLVYKDPARPKIQKTCTFKNLTYETVRVPGCAHHADSLYTYPVATQCHCGKCDSDSTDCTVRGLGPSYCSFGEMKE | – | – | 1.9 nM and 2.3 nM | 0.0612 nM and 0.0209 nM |
